Measured values published in US20070020267A1.
pIC50, pKd: −log10 of the molar value.

Key:
hVEGF (human) [1] = target: hVEGF (human) (UniProt P15692); assay: SPR; 25 C; details: Fab
hVEGF (human) [2] = target: hVEGF (human) (UniProt P15692); assay: SPR; 37 C; details: Fab
hVEGF (human) [3] = target: hVEGF (human) (UniProt P15692); assay: competition; 25 C; details: Fab
mVEGF (mouse) = mVEGF (mouse) (UniProt Q00731); assay: competition; 25 C; details: Fab
[4] = target: T1, murine VEGF (mVEGF) (mouse) (UniProt Q00731); assay: BIAcore or solution binding ELISA, control Fab
T1 sequence (looked up): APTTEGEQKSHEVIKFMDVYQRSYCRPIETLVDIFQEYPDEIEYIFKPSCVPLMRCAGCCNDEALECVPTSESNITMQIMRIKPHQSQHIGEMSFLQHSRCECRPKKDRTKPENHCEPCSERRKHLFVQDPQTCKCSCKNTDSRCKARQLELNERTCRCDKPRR

hVEGF (human) [5] = target: hVEGF (human) (UniProt P15692); assay: SPR; details: Fab

Chain of Y0317 Fab (VH): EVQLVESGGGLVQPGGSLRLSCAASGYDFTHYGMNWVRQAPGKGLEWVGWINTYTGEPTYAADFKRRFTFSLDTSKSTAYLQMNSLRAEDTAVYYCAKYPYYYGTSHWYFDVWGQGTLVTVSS
Chain of Y0317 Fab (VL): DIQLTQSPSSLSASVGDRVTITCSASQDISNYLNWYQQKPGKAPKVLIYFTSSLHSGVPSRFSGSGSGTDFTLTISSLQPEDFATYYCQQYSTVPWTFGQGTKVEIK

Row | pKd (hVEGF (human) [1]) | pKd (hVEGF (human) [2]) | pIC50 (hVEGF (human) [3]) | pIC50 (mVEGF (mouse)) | pKd [4] | pKd (hVEGF (human) [5]) | Substance
1 | 9.70 | 9.96 | 10.70 | 6.52 | – | – | Y0317
2 | – | – | – | – | 6.46 | – | Y0317 Fab
3 | 8.54 | 7.89 | 8.96 | – | – | 8.54 | Avastin
